Laboratory results reported in patent US20140087995A1 (published 2014).
Numbered stars: 1 amine (or outer) side, 2 acyl side, 3 side chain; on linkers, the order of the positions; unused ones are H or OH. Bridge positions count the residues as written; N and C are the ends. Side chains are listed from the residue outwards. Ends that are not written are not given here. * marks the point of attachment. C20 diacid = O=C(O)CCCCCCCCCCCCCCCCCCC(=O)*; γGlu = O=C(O)[C@H](CCC(=O)[*:2])N[*:1]; AEEA = NCCOCCOCC(=O)O

B1: N^ε1-[2-[2-[2-[[(4S)-4-carboxy-4-(19-carboxynonadecanoylamino)butanoyl]amino]ethoxy]ethoxy]acetyl]-[His14,Arg17,Pro21,Pro27,Pro34]-h-amylin (peptide)
peptide: K([AEEA-γGlu-C20 diacid])CNTATCATQRLAHFLRHSSPNFGAIPSSTNVGPNTY-NH2
modifications: disulfide 2-7; N-terminus assumed
SMILES: CC[C@H](C)[C@H](NC(=O)[C@H](C)NC(=O)CNC(=O)[C@H](Cc1ccccc1)NC(=O)[C@H](CC(N)=O)NC(=O)[C@@H]1CCCN1C(=O)[C@H](CO)NC(=O)[C@H](CO)NC(=O)[C@H](Cc1c[nH]cn1)NC(=O)[C@H](CCCNC(=N)N)NC(=O)[C@H](CC(C)C)NC(=O)[C@H](Cc1ccccc1)NC(=O)[C@H](Cc1c[nH]cn1)NC(=O)[C@H](C)NC(=O)[C@H](CC(C)C)NC(=O)[C@H](CCCNC(=N)N)NC(=O)[C@H](CCC(N)=O)NC(=O)[C@@H](NC(=O)[C@H](C)NC(=O)[C@@H]1CSSC[C@H](NC(=O)[C@@H](N)CCCCNC(=O)COCCOCCNC(=O)CC[C@H](NC(=O)CCCCCCCCCCCCCCCCCCC(=O)O)C(=O)O)C(=O)N[C@@H](CC(N)=O)C(=O)N[C@@H]([C@@H](C)O)C(=O)N[C@@H](C)C(=O)N[C@@H]([C@@H](C)O)C(=O)N1)[C@@H](C)O)C(=O)N1CCC[C@H]1C(=O)N[C@@H](CO)C(=O)N[C@@H](CO)C(=O)N[C@H](C(=O)N[C@@H](CC(N)=O)C(=O)N[C@H](C(=O)NCC(=O)N1CCC[C@H]1C(=O)N[C@@H](CC(N)=O)C(=O)N[C@H](C(=O)N[C@@H](Cc1ccc(O)cc1)C(N)=O)[C@@H](C)O)C(C)C)[C@@H](C)O
notes: also called compound 68
B2: N^ε1-[2-[2-[2-[[(4S)-4-carboxy-4-(19-carboxynonadecanoylamino)butanoyl]amino]ethoxy]ethoxy]acetyl]-[Ser14,Arg17,Pro21,Pro27,Pro31]-h-amylin (peptide)
peptide: K([AEEA-γGlu-C20 diacid])CNTATCATQRLASFLRHSSPNFGAIPSSTPVGSNTY-NH2
modifications: disulfide 2-7; N-terminus assumed
SMILES: CC[C@H](C)[C@H](NC(=O)[C@H](C)NC(=O)CNC(=O)[C@H](Cc1ccccc1)NC(=O)[C@H](CC(N)=O)NC(=O)[C@@H]1CCCN1C(=O)[C@H](CO)NC(=O)[C@H](CO)NC(=O)[C@H](Cc1c[nH]cn1)NC(=O)[C@H](CCCNC(=N)N)NC(=O)[C@H](CC(C)C)NC(=O)[C@H](Cc1ccccc1)NC(=O)[C@H](CO)NC(=O)[C@H](C)NC(=O)[C@H](CC(C)C)NC(=O)[C@H](CCCNC(=N)N)NC(=O)[C@H](CCC(N)=O)NC(=O)[C@@H](NC(=O)[C@H](C)NC(=O)[C@@H]1CSSC[C@H](NC(=O)[C@@H](N)CCCCNC(=O)COCCOCCNC(=O)CC[C@H](NC(=O)CCCCCCCCCCCCCCCCCCC(=O)O)C(=O)O)C(=O)N[C@@H](CC(N)=O)C(=O)N[C@@H]([C@@H](C)O)C(=O)N[C@@H](C)C(=O)N[C@@H]([C@@H](C)O)C(=O)N1)[C@@H](C)O)C(=O)N1CCC[C@H]1C(=O)N[C@@H](CO)C(=O)N[C@@H](CO)C(=O)N[C@H](C(=O)N1CCC[C@H]1C(=O)N[C@H](C(=O)NCC(=O)N[C@@H](CO)C(=O)N[C@@H](CC(N)=O)C(=O)N[C@H](C(=O)N[C@@H](Cc1ccc(O)cc1)C(N)=O)[C@@H](C)O)C(C)C)[C@@H](C)O
notes: also called compound 73
B3: N^ε1-[(4S)-4-carboxy-4-(19-carboxynonadecanoylamino)butanoyl]-[Arg14,Arg17,Pro21,Pro27,Pro31]-h-amylin (peptide)
peptide: K([γGlu-C20 diacid])CNTATCATQRLARFLRHSSPNFGAIPSSTPVGSNTY-NH2
modifications: disulfide 2-7; N-terminus assumed
SMILES: CC[C@H](C)[C@H](NC(=O)[C@H](C)NC(=O)CNC(=O)[C@H](Cc1ccccc1)NC(=O)[C@H](CC(N)=O)NC(=O)[C@@H]1CCCN1C(=O)[C@H](CO)NC(=O)[C@H](CO)NC(=O)[C@H](Cc1c[nH]cn1)NC(=O)[C@H](CCCNC(=N)N)NC(=O)[C@H](CC(C)C)NC(=O)[C@H](Cc1ccccc1)NC(=O)[C@H](CCCNC(=N)N)NC(=O)[C@H](C)NC(=O)[C@H](CC(C)C)NC(=O)[C@H](CCCNC(=N)N)NC(=O)[C@H](CCC(N)=O)NC(=O)[C@@H](NC(=O)[C@H](C)NC(=O)[C@@H]1CSSC[C@H](NC(=O)[C@@H](N)CCCCNC(=O)CC[C@H](NC(=O)CCCCCCCCCCCCCCCCCCC(=O)O)C(=O)O)C(=O)N[C@@H](CC(N)=O)C(=O)N[C@@H]([C@@H](C)O)C(=O)N[C@@H](C)C(=O)N[C@@H]([C@@H](C)O)C(=O)N1)[C@@H](C)O)C(=O)N1CCC[C@H]1C(=O)N[C@@H](CO)C(=O)N[C@@H](CO)C(=O)N[C@H](C(=O)N1CCC[C@H]1C(=O)N[C@H](C(=O)NCC(=O)N[C@@H](CO)C(=O)N[C@@H](CC(N)=O)C(=O)N[C@H](C(=O)N[C@@H](Cc1ccc(O)cc1)C(N)=O)[C@@H](C)O)C(C)C)[C@@H](C)O
notes: also called compound 63
B4: N^ε1-[2-[2-[2-[[(4S)-4-carboxy-4-(19-carboxynonadecanoylamino)butanoyl]amino]ethoxy]ethoxy]acetyl]-[Lys14,Arg17,Pro21,Pro27,Pro31]-h-amylin (peptide)
peptide: K([AEEA-γGlu-C20 diacid])CNTATCATQRLAKFLRHSSPNFGAIPSSTPVGSNTY-NH2
modifications: disulfide 2-7; N-terminus assumed
SMILES: CC[C@H](C)[C@H](NC(=O)[C@H](C)NC(=O)CNC(=O)[C@H](Cc1ccccc1)NC(=O)[C@H](CC(N)=O)NC(=O)[C@@H]1CCCN1C(=O)[C@H](CO)NC(=O)[C@H](CO)NC(=O)[C@H](Cc1c[nH]cn1)NC(=O)[C@H](CCCNC(=N)N)NC(=O)[C@H](CC(C)C)NC(=O)[C@H](Cc1ccccc1)NC(=O)[C@H](CCCCN)NC(=O)[C@H](C)NC(=O)[C@H](CC(C)C)NC(=O)[C@H](CCCNC(=N)N)NC(=O)[C@H](CCC(N)=O)NC(=O)[C@@H](NC(=O)[C@H](C)NC(=O)[C@@H]1CSSC[C@H](NC(=O)[C@@H](N)CCCCNC(=O)COCCOCCNC(=O)CC[C@H](NC(=O)CCCCCCCCCCCCCCCCCCC(=O)O)C(=O)O)C(=O)N[C@@H](CC(N)=O)C(=O)N[C@@H]([C@@H](C)O)C(=O)N[C@@H](C)C(=O)N[C@@H]([C@@H](C)O)C(=O)N1)[C@@H](C)O)C(=O)N1CCC[C@H]1C(=O)N[C@@H](CO)C(=O)N[C@@H](CO)C(=O)N[C@H](C(=O)N1CCC[C@H]1C(=O)N[C@H](C(=O)NCC(=O)N[C@@H](CO)C(=O)N[C@@H](CC(N)=O)C(=O)N[C@H](C(=O)N[C@@H](Cc1ccc(O)cc1)C(N)=O)[C@@H](C)O)C(C)C)[C@@H](C)O
notes: also called compound 74
B5: N^ε1-[2-[2-[2-[[(4S)-4-carboxy-4-(19-carboxynonadecanoylamino)butanoyl]amino]ethoxy]ethoxy]acetyl]-[Thr14,Arg17,Pro21,Pro27,Pro31]-h-amylin (peptide)
peptide: K([AEEA-γGlu-C20 diacid])CNTATCATQRLATFLRHSSPNFGAIPSSTPVGSNTY-NH2
modifications: disulfide 2-7; N-terminus assumed
SMILES: CC[C@H](C)[C@H](NC(=O)[C@H](C)NC(=O)CNC(=O)[C@H](Cc1ccccc1)NC(=O)[C@H](CC(N)=O)NC(=O)[C@@H]1CCCN1C(=O)[C@H](CO)NC(=O)[C@H](CO)NC(=O)[C@H](Cc1c[nH]cn1)NC(=O)[C@H](CCCNC(=N)N)NC(=O)[C@H](CC(C)C)NC(=O)[C@H](Cc1ccccc1)NC(=O)[C@@H](NC(=O)[C@H](C)NC(=O)[C@H](CC(C)C)NC(=O)[C@H](CCCNC(=N)N)NC(=O)[C@H](CCC(N)=O)NC(=O)[C@@H](NC(=O)[C@H](C)NC(=O)[C@@H]1CSSC[C@H](NC(=O)[C@@H](N)CCCCNC(=O)COCCOCCNC(=O)CC[C@H](NC(=O)CCCCCCCCCCCCCCCCCCC(=O)O)C(=O)O)C(=O)N[C@@H](CC(N)=O)C(=O)N[C@@H]([C@@H](C)O)C(=O)N[C@@H](C)C(=O)N[C@@H]([C@@H](C)O)C(=O)N1)[C@@H](C)O)[C@@H](C)O)C(=O)N1CCC[C@H]1C(=O)N[C@@H](CO)C(=O)N[C@@H](CO)C(=O)N[C@H](C(=O)N1CCC[C@H]1C(=O)N[C@H](C(=O)NCC(=O)N[C@@H](CO)C(=O)N[C@@H](CC(N)=O)C(=O)N[C@H](C(=O)N[C@@H](Cc1ccc(O)cc1)C(N)=O)[C@@H](C)O)C(C)C)[C@@H](C)O
notes: also called compound 75
B6: N^ε1-[(4S)-4-carboxy-4-(19-carboxynonadecanoylamino)butanoyl]-[Ala14,Arg17,Pro21,Pro27,His34]-h-amylin (peptide)
peptide: K([γGlu-C20 diacid])CNTATCATQRLAAFLRHSSPNFGAIPSSTNVGHNTY-NH2
modifications: disulfide 2-7; N-terminus assumed
SMILES: CC[C@H](C)[C@H](NC(=O)[C@H](C)NC(=O)CNC(=O)[C@H](Cc1ccccc1)NC(=O)[C@H](CC(N)=O)NC(=O)[C@@H]1CCCN1C(=O)[C@H](CO)NC(=O)[C@H](CO)NC(=O)[C@H](Cc1c[nH]cn1)NC(=O)[C@H](CCCNC(=N)N)NC(=O)[C@H](CC(C)C)NC(=O)[C@H](Cc1ccccc1)NC(=O)[C@H](C)NC(=O)[C@H](C)NC(=O)[C@H](CC(C)C)NC(=O)[C@H](CCCNC(=N)N)NC(=O)[C@H](CCC(N)=O)NC(=O)[C@@H](NC(=O)[C@H](C)NC(=O)[C@@H]1CSSC[C@H](NC(=O)[C@@H](N)CCCCNC(=O)CC[C@H](NC(=O)CCCCCCCCCCCCCCCCCCC(=O)O)C(=O)O)C(=O)N[C@@H](CC(N)=O)C(=O)N[C@@H]([C@@H](C)O)C(=O)N[C@@H](C)C(=O)N[C@@H]([C@@H](C)O)C(=O)N1)[C@@H](C)O)C(=O)N1CCC[C@H]1C(=O)N[C@@H](CO)C(=O)N[C@@H](CO)C(=O)N[C@H](C(=O)N[C@@H](CC(N)=O)C(=O)N[C@H](C(=O)NCC(=O)N[C@@H](Cc1c[nH]cn1)C(=O)N[C@@H](CC(N)=O)C(=O)N[C@H](C(=O)N[C@@H](Cc1ccc(O)cc1)C(N)=O)[C@@H](C)O)C(C)C)[C@@H](C)O
notes: also called compound 93

Molecular target: T1, human calcitonin receptor (human, UniProt P30988 25-474)
T1 sequence (looked up): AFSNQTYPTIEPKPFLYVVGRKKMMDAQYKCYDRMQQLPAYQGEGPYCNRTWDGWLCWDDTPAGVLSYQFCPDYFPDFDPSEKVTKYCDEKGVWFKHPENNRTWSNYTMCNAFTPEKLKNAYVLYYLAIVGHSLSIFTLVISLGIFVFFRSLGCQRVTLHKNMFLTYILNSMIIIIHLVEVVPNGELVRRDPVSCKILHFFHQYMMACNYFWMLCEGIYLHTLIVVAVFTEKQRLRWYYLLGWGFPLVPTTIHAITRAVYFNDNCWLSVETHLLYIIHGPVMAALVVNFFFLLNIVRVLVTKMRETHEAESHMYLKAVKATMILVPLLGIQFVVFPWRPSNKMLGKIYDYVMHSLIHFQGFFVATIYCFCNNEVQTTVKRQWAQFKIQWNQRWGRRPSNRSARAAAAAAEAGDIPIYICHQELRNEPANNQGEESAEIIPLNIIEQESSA
Assay: cell-based or functional assay

In order of rising “hCTR funct. EC50” value:
1. B1  0.932 nM
2. B2  0.961 nM
3. B6  1.15 nM
4. B3  5.13 nM
5. B5  9.07 nM
6. B4  37.5 nM
